Measurements taken from patent US20140087995A1 (published 2014).
Numbered stars: 1 amine (or outer) side, 2 acyl side, 3 side chain; on linkers, the order of the positions; unused ones are H or OH. Bridge positions count the residues as written; N and C are the ends. Side chains are listed from the residue outwards. Ends that are not written are not given here. * marks the point of attachment. C20 diacid = O=C(O)CCCCCCCCCCCCCCCCCCC(=O)*; γGlu = O=C(O)[C@H](CCC(=O)[*:2])N[*:1]

B1: N^ε1-[(4S)-4-carboxy-4-(19-carboxynonadecanoylamino)butanoyl]-[Arg14,Arg17,Pro21,Pro27]-h-amylin (peptide)
peptide: K([γGlu-C20 diacid])CNTATCATQRLARFLRHSSPNFGAIPSSTNVGSNTY-NH2
modifications: disulfide 2-7; N-terminus assumed
SMILES: CC[C@H](C)[C@H](NC(=O)[C@H](C)NC(=O)CNC(=O)[C@H](Cc1ccccc1)NC(=O)[C@H](CC(N)=O)NC(=O)[C@@H]1CCCN1C(=O)[C@H](CO)NC(=O)[C@H](CO)NC(=O)[C@H](Cc1c[nH]cn1)NC(=O)[C@H](CCCNC(=N)N)NC(=O)[C@H](CC(C)C)NC(=O)[C@H](Cc1ccccc1)NC(=O)[C@H](CCCNC(=N)N)NC(=O)[C@H](C)NC(=O)[C@H](CC(C)C)NC(=O)[C@H](CCCNC(=N)N)NC(=O)[C@H](CCC(N)=O)NC(=O)[C@@H](NC(=O)[C@H](C)NC(=O)[C@@H]1CSSC[C@H](NC(=O)[C@@H](N)CCCCNC(=O)CC[C@H](NC(=O)CCCCCCCCCCCCCCCCCCC(=O)O)C(=O)O)C(=O)N[C@@H](CC(N)=O)C(=O)N[C@@H]([C@@H](C)O)C(=O)N[C@@H](C)C(=O)N[C@@H]([C@@H](C)O)C(=O)N1)[C@@H](C)O)C(=O)N1CCC[C@H]1C(=O)N[C@@H](CO)C(=O)N[C@@H](CO)C(=O)N[C@H](C(=O)N[C@@H](CC(N)=O)C(=O)N[C@H](C(=O)NCC(=O)N[C@@H](CO)C(=O)N[C@@H](CC(N)=O)C(=O)N[C@H](C(=O)N[C@@H](Cc1ccc(O)cc1)C(N)=O)[C@@H](C)O)C(C)C)[C@@H](C)O
notes: also called compound 83
B2: N^ε1-[(4S)-4-carboxy-4-(19-carboxynonadecanoylamino)butanoyl]-[Arg17,Pro21,Pro27,Arg34]-h-amylin (peptide)
peptide: K([γGlu-C20 diacid])CNTATCATQRLANFLRHSSPNFGAIPSSTNVGRNTY-NH2
modifications: disulfide 2-7; N-terminus assumed
SMILES: CC[C@H](C)[C@H](NC(=O)[C@H](C)NC(=O)CNC(=O)[C@H](Cc1ccccc1)NC(=O)[C@H](CC(N)=O)NC(=O)[C@@H]1CCCN1C(=O)[C@H](CO)NC(=O)[C@H](CO)NC(=O)[C@H](Cc1c[nH]cn1)NC(=O)[C@H](CCCNC(=N)N)NC(=O)[C@H](CC(C)C)NC(=O)[C@H](Cc1ccccc1)NC(=O)[C@H](CC(N)=O)NC(=O)[C@H](C)NC(=O)[C@H](CC(C)C)NC(=O)[C@H](CCCNC(=N)N)NC(=O)[C@H](CCC(N)=O)NC(=O)[C@@H](NC(=O)[C@H](C)NC(=O)[C@@H]1CSSC[C@H](NC(=O)[C@@H](N)CCCCNC(=O)CC[C@H](NC(=O)CCCCCCCCCCCCCCCCCCC(=O)O)C(=O)O)C(=O)N[C@@H](CC(N)=O)C(=O)N[C@@H]([C@@H](C)O)C(=O)N[C@@H](C)C(=O)N[C@@H]([C@@H](C)O)C(=O)N1)[C@@H](C)O)C(=O)N1CCC[C@H]1C(=O)N[C@@H](CO)C(=O)N[C@@H](CO)C(=O)N[C@H](C(=O)N[C@@H](CC(N)=O)C(=O)N[C@H](C(=O)NCC(=O)N[C@@H](CCCNC(=N)N)C(=O)N[C@@H](CC(N)=O)C(=O)N[C@H](C(=O)N[C@@H](Cc1ccc(O)cc1)C(N)=O)[C@@H](C)O)C(C)C)[C@@H](C)O
notes: also called compound 79
B3: N^ε1-[(4S)-4-carboxy-4-(19-carboxynonadecanoylamino)butanoyl]-[Arg17,Pro21,Pro27,His34]-h-amylin (peptide)
peptide: K([γGlu-C20 diacid])CNTATCATQRLANFLRHSSPNFGAIPSSTNVGHNTY-NH2
modifications: disulfide 2-7; N-terminus assumed
SMILES: CC[C@H](C)[C@H](NC(=O)[C@H](C)NC(=O)CNC(=O)[C@H](Cc1ccccc1)NC(=O)[C@H](CC(N)=O)NC(=O)[C@@H]1CCCN1C(=O)[C@H](CO)NC(=O)[C@H](CO)NC(=O)[C@H](Cc1c[nH]cn1)NC(=O)[C@H](CCCNC(=N)N)NC(=O)[C@H](CC(C)C)NC(=O)[C@H](Cc1ccccc1)NC(=O)[C@H](CC(N)=O)NC(=O)[C@H](C)NC(=O)[C@H](CC(C)C)NC(=O)[C@H](CCCNC(=N)N)NC(=O)[C@H](CCC(N)=O)NC(=O)[C@@H](NC(=O)[C@H](C)NC(=O)[C@@H]1CSSC[C@H](NC(=O)[C@@H](N)CCCCNC(=O)CC[C@H](NC(=O)CCCCCCCCCCCCCCCCCCC(=O)O)C(=O)O)C(=O)N[C@@H](CC(N)=O)C(=O)N[C@@H]([C@@H](C)O)C(=O)N[C@@H](C)C(=O)N[C@@H]([C@@H](C)O)C(=O)N1)[C@@H](C)O)C(=O)N1CCC[C@H]1C(=O)N[C@@H](CO)C(=O)N[C@@H](CO)C(=O)N[C@H](C(=O)N[C@@H](CC(N)=O)C(=O)N[C@H](C(=O)NCC(=O)N[C@@H](Cc1c[nH]cn1)C(=O)N[C@@H](CC(N)=O)C(=O)N[C@H](C(=O)N[C@@H](Cc1ccc(O)cc1)C(N)=O)[C@@H](C)O)C(C)C)[C@@H](C)O
notes: also called compound 77
B4: N^ε1-[(4S)-4-carboxy-4-(19-carboxynonadecanoylamino)butanoyl]-[Arg17,Pro21,Pro27,His35]-h-amylin (peptide)
peptide: K([γGlu-C20 diacid])CNTATCATQRLANFLRHSSPNFGAIPSSTNVGSHTY-NH2
modifications: disulfide 2-7; N-terminus assumed
SMILES: CC[C@H](C)[C@H](NC(=O)[C@H](C)NC(=O)CNC(=O)[C@H](Cc1ccccc1)NC(=O)[C@H](CC(N)=O)NC(=O)[C@@H]1CCCN1C(=O)[C@H](CO)NC(=O)[C@H](CO)NC(=O)[C@H](Cc1c[nH]cn1)NC(=O)[C@H](CCCNC(=N)N)NC(=O)[C@H](CC(C)C)NC(=O)[C@H](Cc1ccccc1)NC(=O)[C@H](CC(N)=O)NC(=O)[C@H](C)NC(=O)[C@H](CC(C)C)NC(=O)[C@H](CCCNC(=N)N)NC(=O)[C@H](CCC(N)=O)NC(=O)[C@@H](NC(=O)[C@H](C)NC(=O)[C@@H]1CSSC[C@H](NC(=O)[C@@H](N)CCCCNC(=O)CC[C@H](NC(=O)CCCCCCCCCCCCCCCCCCC(=O)O)C(=O)O)C(=O)N[C@@H](CC(N)=O)C(=O)N[C@@H]([C@@H](C)O)C(=O)N[C@@H](C)C(=O)N[C@@H]([C@@H](C)O)C(=O)N1)[C@@H](C)O)C(=O)N1CCC[C@H]1C(=O)N[C@@H](CO)C(=O)N[C@@H](CO)C(=O)N[C@H](C(=O)N[C@@H](CC(N)=O)C(=O)N[C@H](C(=O)NCC(=O)N[C@@H](CO)C(=O)N[C@@H](Cc1c[nH]cn1)C(=O)N[C@H](C(=O)N[C@@H](Cc1ccc(O)cc1)C(N)=O)[C@@H](C)O)C(C)C)[C@@H](C)O
notes: also called compound 60
B5: N^ε1-[(4S)-4-carboxy-4-(19-carboxynonadecanoylamino)butanoyl]-[Glu14,Arg17,Pro21,Pro27,Arg35]-h-amylin (peptide)
peptide: K([γGlu-C20 diacid])CNTATCATQRLAEFLRHSSPNFGAIPSSTNVGSRTY-NH2
modifications: disulfide 2-7; N-terminus assumed
SMILES: CC[C@H](C)[C@H](NC(=O)[C@H](C)NC(=O)CNC(=O)[C@H](Cc1ccccc1)NC(=O)[C@H](CC(N)=O)NC(=O)[C@@H]1CCCN1C(=O)[C@H](CO)NC(=O)[C@H](CO)NC(=O)[C@H](Cc1c[nH]cn1)NC(=O)[C@H](CCCNC(=N)N)NC(=O)[C@H](CC(C)C)NC(=O)[C@H](Cc1ccccc1)NC(=O)[C@H](CCC(=O)O)NC(=O)[C@H](C)NC(=O)[C@H](CC(C)C)NC(=O)[C@H](CCCNC(=N)N)NC(=O)[C@H](CCC(N)=O)NC(=O)[C@@H](NC(=O)[C@H](C)NC(=O)[C@@H]1CSSC[C@H](NC(=O)[C@@H](N)CCCCNC(=O)CC[C@H](NC(=O)CCCCCCCCCCCCCCCCCCC(=O)O)C(=O)O)C(=O)N[C@@H](CC(N)=O)C(=O)N[C@@H]([C@@H](C)O)C(=O)N[C@@H](C)C(=O)N[C@@H]([C@@H](C)O)C(=O)N1)[C@@H](C)O)C(=O)N1CCC[C@H]1C(=O)N[C@@H](CO)C(=O)N[C@@H](CO)C(=O)N[C@H](C(=O)N[C@@H](CC(N)=O)C(=O)N[C@H](C(=O)NCC(=O)N[C@@H](CO)C(=O)N[C@@H](CCCNC(=N)N)C(=O)N[C@H](C(=O)N[C@@H](Cc1ccc(O)cc1)C(N)=O)[C@@H](C)O)C(C)C)[C@@H](C)O
notes: also called compound 51
B6: N^ε1-[(4S)-4-carboxy-4-(19-carboxynonadecanoylamino)butanoyl]-[His14,Arg17,Pro21,Pro27,Arg34]-h-amylin (peptide)
peptide: K([γGlu-C20 diacid])CNTATCATQRLAHFLRHSSPNFGAIPSSTNVGRNTY-NH2
modifications: disulfide 2-7; N-terminus assumed
SMILES: CC[C@H](C)[C@H](NC(=O)[C@H](C)NC(=O)CNC(=O)[C@H](Cc1ccccc1)NC(=O)[C@H](CC(N)=O)NC(=O)[C@@H]1CCCN1C(=O)[C@H](CO)NC(=O)[C@H](CO)NC(=O)[C@H](Cc1c[nH]cn1)NC(=O)[C@H](CCCNC(=N)N)NC(=O)[C@H](CC(C)C)NC(=O)[C@H](Cc1ccccc1)NC(=O)[C@H](Cc1c[nH]cn1)NC(=O)[C@H](C)NC(=O)[C@H](CC(C)C)NC(=O)[C@H](CCCNC(=N)N)NC(=O)[C@H](CCC(N)=O)NC(=O)[C@@H](NC(=O)[C@H](C)NC(=O)[C@@H]1CSSC[C@H](NC(=O)[C@@H](N)CCCCNC(=O)CC[C@H](NC(=O)CCCCCCCCCCCCCCCCCCC(=O)O)C(=O)O)C(=O)N[C@@H](CC(N)=O)C(=O)N[C@@H]([C@@H](C)O)C(=O)N[C@@H](C)C(=O)N[C@@H]([C@@H](C)O)C(=O)N1)[C@@H](C)O)C(=O)N1CCC[C@H]1C(=O)N[C@@H](CO)C(=O)N[C@@H](CO)C(=O)N[C@H](C(=O)N[C@@H](CC(N)=O)C(=O)N[C@H](C(=O)NCC(=O)N[C@@H](CCCNC(=N)N)C(=O)N[C@@H](CC(N)=O)C(=O)N[C@H](C(=O)N[C@@H](Cc1ccc(O)cc1)C(N)=O)[C@@H](C)O)C(C)C)[C@@H](C)O
notes: also called compound 85

target: T1, human calcitonin receptor (human, UniProt P30988 25-474); test: SPA competition vs 125I-calcitonin, membranes of BHK cells with human calcitonin receptor (Assay VII)
T1 construct: whole, on cells; Assayed as cell membranes of BHK tk'ts 13 cells stably transfected with the human calcitonin receptor (Assay VII); also called hCTR; hCT
T1 sequence (looked up): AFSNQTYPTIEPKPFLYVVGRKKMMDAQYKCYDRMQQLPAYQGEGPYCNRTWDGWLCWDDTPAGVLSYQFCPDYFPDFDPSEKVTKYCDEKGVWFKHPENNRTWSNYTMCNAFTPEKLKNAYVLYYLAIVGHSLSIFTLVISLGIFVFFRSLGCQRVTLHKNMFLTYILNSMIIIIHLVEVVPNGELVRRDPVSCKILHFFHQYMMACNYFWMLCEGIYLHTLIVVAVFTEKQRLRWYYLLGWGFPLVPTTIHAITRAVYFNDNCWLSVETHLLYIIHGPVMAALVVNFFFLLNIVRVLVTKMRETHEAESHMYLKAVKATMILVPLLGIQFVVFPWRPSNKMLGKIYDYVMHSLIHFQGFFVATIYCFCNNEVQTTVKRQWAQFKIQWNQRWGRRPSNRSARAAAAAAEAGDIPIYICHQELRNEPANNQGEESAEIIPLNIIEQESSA
In short: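 BHK hCTR membranes 35 ng/μL + SPA beads 0.05 mg/well; buffer 50 mM Hepes pH 7.4, 1 mM CaCl2, 5 mM MgCl₂, 0.1% OA, 0.02% Tween20. 120 min, 25° C., shaking. Scintillation count; IC50 by one-site binding competition.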

Point of comparison: B2, IC50 36.4 nM. Against it:
- B1 — 3.8-fold higher, 137 nM
- B3 — within 1.5-fold, 50.7 nM
- B4 — within 1.5-fold, 31.4 nM
- B5 — within 1.5-fold, 31.1 nM
- B6 — 2.2-fold higher, 80.4 nM

target: T1, human calcitonin receptor; test: IC50 at hCTR divided by IC50 at hAmylin-R (SPA competition assays V and VII)
In short: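 Competition binding by SPA with cell membranes (35 ng/μL) and SPA beads in 50 mM Hepes pH 7.4 with 1 mM CaCl2, 5 mM MgCl2, 0.1% OA and 0.02% Tween20. Incubated 120 min at 25 °C with shaking, then counted.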

Point of comparison: B1, “Ratio hCT/hAmylin binding” value 146. Against it:
- B2 — lower, 46.1
- B3 — lower, 118
- B4 — lower, 45.2
- B5 — lower, 37.5
- B6 — lower, 91.8
